Laboratory results from US20180064666A1 (BETH ISRAEL DEACONESS MEDICAL CENTER, published 2018).

Key:
[1] = target: p-Erk1 (phosphorylated Erk1, member of p-Erk1/2) (human (endogenous in human cell lines), UniProt P27361 2-379, phosphorylated (p-Erk1/2, induced by constitutively active MEK1); sites not given); experiment: co-IP from HEK293 cells (FIG. 45D)
[2] = target: p-Erk2 (phosphorylated Erk2, member of p-Erk1/2) (human (endogenous in human cell lines), UniProt P28482 2-360, phosphorylated (p-Erk1/2, induced by constitutively active MEK1); sites not given); experiment: co-IP from HEK293 cells (FIG. 45D)
p-Erk2 (phosphorylated Erk2, member of p-Erk1/2), sequence (P28482 2-360 limits assumed): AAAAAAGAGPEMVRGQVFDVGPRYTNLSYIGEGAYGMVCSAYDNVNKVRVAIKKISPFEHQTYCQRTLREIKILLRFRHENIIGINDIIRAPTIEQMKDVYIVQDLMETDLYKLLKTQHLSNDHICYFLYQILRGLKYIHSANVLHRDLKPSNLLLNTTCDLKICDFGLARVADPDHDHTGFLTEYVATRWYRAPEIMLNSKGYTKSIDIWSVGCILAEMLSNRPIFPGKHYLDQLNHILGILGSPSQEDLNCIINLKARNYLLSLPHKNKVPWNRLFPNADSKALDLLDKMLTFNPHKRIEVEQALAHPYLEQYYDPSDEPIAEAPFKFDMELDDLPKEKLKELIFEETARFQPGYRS

[3] = target: T1, Erk2 (endogenous, member of Erk1/2) (human (endogenous in human cell lines), UniProt P28482 2-360); experiment: co-IP from HEK293 cells (FIG. 45D)
T1 construct: one entry is written for each member; also called total Erk1/2
T1 sequence (P28482 2-360 limits assumed): as above

[4] = target: T2, Erk1 (endogenous, member of Erk1/2) (human (endogenous in human cell lines), UniProt P27361 2-379); experiment: co-IP from HEK293 cells (FIG. 45D)
T2 construct: one entry is written for each member; also called total Erk1/2
T2 sequence (P27361 2-379 limits assumed): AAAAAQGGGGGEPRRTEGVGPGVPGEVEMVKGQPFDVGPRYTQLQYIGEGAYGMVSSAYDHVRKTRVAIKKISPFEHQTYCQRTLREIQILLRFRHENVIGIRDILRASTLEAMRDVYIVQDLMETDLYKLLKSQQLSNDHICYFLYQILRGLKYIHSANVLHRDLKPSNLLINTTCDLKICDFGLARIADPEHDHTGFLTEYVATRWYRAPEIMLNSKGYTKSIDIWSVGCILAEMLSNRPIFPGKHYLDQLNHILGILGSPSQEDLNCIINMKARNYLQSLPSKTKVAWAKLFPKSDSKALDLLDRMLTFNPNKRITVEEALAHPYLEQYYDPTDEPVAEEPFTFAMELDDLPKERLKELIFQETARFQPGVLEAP

[5] = target: T1, Erk2 (endogenous, member of Erk1/2); experiment: reciprocal co-IP from HMLE lysates, western blot (FIG. 45C)
[6] = target: T2, Erk1 (endogenous, member of Erk1/2); experiment: as above

p-Erk1 (phosphorylated Erk1, member of p-Erk1/2), sequence (P27361 2-379 limits assumed): as above

binding result [1]	binding result [2]	binding result [3]	binding result [4]	binding result [5]	binding result [6]	Binder
binds	binds	binds	binds			Flag-Rab2A (enzyme, UniProt P61019 1-212, looked up, not shown: small tags and cut ends, also called wild-type Rab2A) MAYAYLFKYIIIGDTGVGKSCLLLQFTDKRFQPVHDLTIGVEFGARMITIDGKQIKLQIWDTAGQESFRSITRSYYRGAAGALLVYDITRRDTFNHLTTWLEDARQHSNSNMVIMLIGNKSDLESRREVKKEEGEAFAREHGLIFMETSAKTASNVEEAFINTAKEIYEKIQEGVFDINNEANGIKIGPQHAATNATHAGNQGGQQAGGGCC
				binds	binds	endogenous Rab2A (enzyme, human (endogenous in human HMLE cells), UniProt P61019 2-212, looked up) AYAYLFKYIIIGDTGVGKSCLLLQFTDKRFQPVHDLTIGVEFGARMITIDGKQIKLQIWDTAGQESFRSITRSYYRGAAGALLVYDITRRDTFNHLTTWLEDARQHSNSNMVIMLIGNKSDLESRREVKKEEGEAFAREHGLIFMETSAKTASNVEEAFINTAKEIYEKIQEGVFDINNEANGIKIGPQHAATNATHAGNQGGQQAGGGCC
